Biological target: GST-Pin1 (UniProt Q13526)
Test: fluorescence polarization; labelled pTide probe titrated with GST-Pin1 (the concentration is that of GST-Pin1)

Sequence of GST-Pin1 (Q13526 whole entry): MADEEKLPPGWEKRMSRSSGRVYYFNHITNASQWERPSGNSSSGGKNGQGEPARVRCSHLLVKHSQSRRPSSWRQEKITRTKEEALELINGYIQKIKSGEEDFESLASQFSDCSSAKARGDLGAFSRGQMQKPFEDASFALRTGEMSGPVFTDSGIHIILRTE

## TAMRA-conjugated pTide (N-terminal TAMRA-labeled pTide, Bth-D-phos.Thr-Pip-Nal) (peptide)
  EC50 (read off the curve): 500 nM

## pTide-HiLyte™ Fluor 488 (N-terminal HiLyte™ Fluor 488-labeled pTide, Bth-D-phos.Thr-Pip-Nal) (peptide)
  EC50 (read off the curve): 500 nM

Reference: patent US20180064666A1
